Experimental data published in US20150218244A1.

Target: IL-10 receptor (IL-10R) on freshly isolated primary blood monocytes (human) (UniProt Q13651)
Experiment: cell-based or functional assay

IL-10 receptor (IL-10R) on freshly isolated primary blood monocytes (human), sequence (Q13651 22-578, chain 1 of 2): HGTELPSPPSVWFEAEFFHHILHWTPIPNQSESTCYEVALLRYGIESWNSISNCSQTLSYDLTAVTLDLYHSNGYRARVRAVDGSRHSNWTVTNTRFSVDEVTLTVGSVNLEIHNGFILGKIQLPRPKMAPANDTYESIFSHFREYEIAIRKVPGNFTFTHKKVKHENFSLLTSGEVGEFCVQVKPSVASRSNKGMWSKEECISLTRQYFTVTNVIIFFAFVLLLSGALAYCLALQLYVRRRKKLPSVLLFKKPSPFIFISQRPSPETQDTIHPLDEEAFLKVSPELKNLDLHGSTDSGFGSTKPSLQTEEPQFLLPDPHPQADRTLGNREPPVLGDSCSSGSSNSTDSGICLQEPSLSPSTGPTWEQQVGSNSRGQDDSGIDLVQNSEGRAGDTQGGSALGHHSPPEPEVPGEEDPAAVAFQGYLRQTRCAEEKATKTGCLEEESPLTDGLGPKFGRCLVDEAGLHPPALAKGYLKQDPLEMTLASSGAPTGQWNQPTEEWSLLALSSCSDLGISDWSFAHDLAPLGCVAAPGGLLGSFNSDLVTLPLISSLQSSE
IL-10 receptor (IL-10R) on freshly isolated primary blood monocytes (human), sequence (Q08334 20-325, chain 2 of 2, further chain): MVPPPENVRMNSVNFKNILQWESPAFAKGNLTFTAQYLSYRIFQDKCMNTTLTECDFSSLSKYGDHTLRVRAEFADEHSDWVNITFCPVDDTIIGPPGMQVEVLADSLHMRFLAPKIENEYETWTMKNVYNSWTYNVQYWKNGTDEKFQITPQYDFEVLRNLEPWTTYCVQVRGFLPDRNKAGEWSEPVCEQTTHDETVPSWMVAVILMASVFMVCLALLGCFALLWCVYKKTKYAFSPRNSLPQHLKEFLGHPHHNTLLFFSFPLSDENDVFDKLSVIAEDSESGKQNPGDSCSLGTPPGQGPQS

recombinant wild type human IL-10 (from UniProt P22301 19-178) (ligand)
EC50 [nM] pSTAT3 induction: 0.017 nM
EC50 [nM] pSTAT3 induction, Donor 1: 0.029 nM
EC50 [nM] pSTAT3 induction, Donor 2: 0.019 nM
EC50 [nM] pSTAT3 induction, Donor 3: 0.021 nM
